# Test results taken from the RNAGym collection of RNA variant scans (doi:10.7554/elife.80360).
# B1: Hairpin Ribozyme (parent)
# chain: GUCCUCUUUCACGUGCGCGUGAAAGAGAGAAGUGAACCAGAGAAACACACGUUGUGGUAUAUUACCUGGUA
# Variants of: B1
# Assay: self-cleavage, relative activity (ratio to wild type); higher = more cleavage; co-transcriptional
row,Variant,self-cleavage
1,A22C A71C,1.26
2,G21U G54A,0.582
3,G21U G54U,0.329
4,G21U G54C,0.438
5,A22U U67C,0.168
6,A22U U67A,0.188
7,A23U A39C,0.483
8,A23G C66G,0.265
9,A23G C66A,0.246
10,A22U G68C,0.252
11,A22C U52A,0.821
12,A22G A64C,0.22
13,A23U C48U,0.118
14,A22U U60A,0.77
15,A23U A44G,0.248
16,A23U A44U,0.15
17,A22U A41C,0.87
18,A22U G25A,0.149
19,A22U G25C,0.143
20,A22G A49G,0.345
21,A22G A49C,0.164
22,A22G G69U,0.238
23,A22G G69A,0.385
24,A23U C46U,0.131

row,Variant,self-cleavage
1,A22G U58A,0.657
2,A23G A45C,0.0971
3,A23G A45U,0.143
4,A23G A45G,0.175
5,A22G A45C,0.13
6,A22G G27U,0.262
7,A22G G27C,0.161
8,A23C G68C,0.138
9,A23C G68U,0.262
10,A23U A47U,0.105
11,A23U A47G,0.11
12,A22U A30U,0.262
13,A22U A39G,0.277
14,A22U A39C,0.456
15,A23G G32A,0.0936
16,A22C U33G,0.0647
17,A22G U62C,0.276
18,A22U G32U,0.0918
19,A22U G32C,0.123
20,A23C C37U,0.444
21,G21U U33A,0.242
22,G21U U33G,0.127
23,A23C A39C,0.517
24,A22G A23G,0.945

row,Variant,self-cleavage
1,A23U A31U,0.166
2,A23C A45U,0.207
3,G21U G42C,0.36
4,G21U G56U,0.147
5,G21U G56A,0.178
6,G21U A28C,0.366
7,G21U A28G,0.98
8,A22U A23C,0.733
9,A22U A23G,0.72
10,A23G U55A,0.273
11,A23G U55C,0.322
12,A23U C50A,0.277
13,A23C A41G,0.928
14,G21U U62C,0.272
15,A22U A64C,0.113
16,A22U A59U,0.143
17,A23U A59G,0.183
18,A23C U55C,0.184
19,G21U U55G,0.2
20,G21U A45U,0.218
21,G21U A45C,0.218
22,G21U A45G,0.26
23,A22G G57C,0.141
24,A23G C65A,0.667

row,Variant,self-cleavage
1,A22U A49G,0.488
2,A22U A49C,0.146
3,A22U A45C,0.179
4,A22U A45G,0.225
5,A23G U53A,0.727
6,A22U G57A,0.121
7,A22U G57C,0.175
8,A23U A28C,0.613
9,A23U A28U,0.674
10,A23G A59U,0.0772
11,A23G A30U,0.181
12,A23G A30C,0.115
13,G21U C48G,0.132
14,G21U C48A,0.122
15,G21U C48U,0.101
16,A22C A31G,0.642
17,A22C A31C,0.16
18,A22C A31U,0.108
19,A22G G40U,0.181
20,A22C A28G,0.807
21,G21U G25U,0.461
22,G21U G25C,0.342
23,A23C A61G,0.161
24,A23C A61U,0.204

row,Variant,self-cleavage
1,A23G C48G,0.159
2,A23G C48A,0.123
3,A23C U58C,0.821
4,A23C U58A,0.49
5,A23G A49U,0.227
6,A22G U52G,0.692
7,A22G U52C,0.791
8,A23G A47U,0.151
9,A23G A47G,0.171
10,A23G A47C,0.3
11,A23C G40A,0.342
12,A23C G40U,0.175
13,G21U G27A,0.25
14,A23C G69U,0.297
15,A23G A64U,0.125
16,A23G A64G,0.43
17,A22C C50A,0.22
18,A22C C50G,0.126
19,A22G G42A,0.143
20,A22U U53C,0.897
21,A22U U53A,0.859
22,A22U C48G,0.111
23,A22U C48U,0.0855
24,A22G A35C,0.715

row,Variant,self-cleavage
1,A23C C38G,0.0489
2,A23G G40U,0.278
3,A23G G40A,0.234
4,A23G G42U,0.359
5,A23G G42A,0.192
6,A23C A71G,0.936
7,A23C A71C,1.16
8,A22C A35C,0.895
9,A22C A35G,0.679
10,A22C A35U,0.746
11,A22C U58G,0.575
12,A22C A61U,0.204
13,A22C A61C,0.3
14,A22U U63G,0.203
15,A22U U63C,0.0646
16,A23C G56C,0.191
17,A22C A49G,0.512
18,A22U C65G,0.266
19,A22U C65A,0.903
20,A22U C65U,0.229
21,A23G U67A,0.105
22,A23G U67C,0.218
23,A23U A35U,0.754
24,A23C C46U,0.0785

row,Variant,self-cleavage
1,A22U C66A,0.209
2,A22U C66G,0.175
3,A23G U70G,0.759
4,A22G U53G,0.936
5,A23U A45G,0.129
6,A22G U60A,0.949
7,G21U G29U,0.106
8,G21U G29A,0.142
9,A22G A36C,0.515
10,A22G A36U,0.423
11,A22G A47U,0.102
12,A23U A30G,0.228
13,A23U A30C,0.201
14,A22C G51C,0.769
15,A22C G51A,0.93
16,G21U A26G,0.708
17,G21U A26U,0.561
18,A22C A26G,0.557
19,A23U A43U,0.123
20,A23U C37G,0.438
21,A22U G40C,0.122
22,A22C G40A,0.242
23,A22U C46A,0.187
